From patent US20260209362A1 (VIB VZW, published 2026)

T1: biotinylated recombinant mouse IL-12Rβ2 (produced in-house) (mouse, UniProt P97378 24-637, randomly biotinylated)
T1 construct: also called mIL-12RB2; mouse IL-12RB2
T1 sequence: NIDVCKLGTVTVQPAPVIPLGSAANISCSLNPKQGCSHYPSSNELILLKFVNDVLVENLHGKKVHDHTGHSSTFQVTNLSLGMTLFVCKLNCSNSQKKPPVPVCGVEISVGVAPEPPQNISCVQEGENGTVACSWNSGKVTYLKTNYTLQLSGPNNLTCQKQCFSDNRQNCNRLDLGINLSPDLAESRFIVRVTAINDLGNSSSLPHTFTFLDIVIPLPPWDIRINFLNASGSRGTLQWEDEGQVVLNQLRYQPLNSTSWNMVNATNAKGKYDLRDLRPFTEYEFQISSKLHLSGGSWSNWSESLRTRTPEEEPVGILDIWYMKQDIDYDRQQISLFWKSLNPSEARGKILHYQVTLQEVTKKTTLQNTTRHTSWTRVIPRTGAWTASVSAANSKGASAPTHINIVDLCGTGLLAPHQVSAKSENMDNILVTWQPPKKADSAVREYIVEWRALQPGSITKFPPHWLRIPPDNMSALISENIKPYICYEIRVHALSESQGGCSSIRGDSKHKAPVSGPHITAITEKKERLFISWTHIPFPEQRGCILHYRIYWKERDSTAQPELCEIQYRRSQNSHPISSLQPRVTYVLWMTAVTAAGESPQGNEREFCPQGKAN

T2: biotinylated recombinant human IL-12Rβ2 (produced in-house) (human, UniProt Q99665 24-622, randomly biotinylated)
T2 construct: also called hIL-12RB2; human IL-12RB2
T2 sequence: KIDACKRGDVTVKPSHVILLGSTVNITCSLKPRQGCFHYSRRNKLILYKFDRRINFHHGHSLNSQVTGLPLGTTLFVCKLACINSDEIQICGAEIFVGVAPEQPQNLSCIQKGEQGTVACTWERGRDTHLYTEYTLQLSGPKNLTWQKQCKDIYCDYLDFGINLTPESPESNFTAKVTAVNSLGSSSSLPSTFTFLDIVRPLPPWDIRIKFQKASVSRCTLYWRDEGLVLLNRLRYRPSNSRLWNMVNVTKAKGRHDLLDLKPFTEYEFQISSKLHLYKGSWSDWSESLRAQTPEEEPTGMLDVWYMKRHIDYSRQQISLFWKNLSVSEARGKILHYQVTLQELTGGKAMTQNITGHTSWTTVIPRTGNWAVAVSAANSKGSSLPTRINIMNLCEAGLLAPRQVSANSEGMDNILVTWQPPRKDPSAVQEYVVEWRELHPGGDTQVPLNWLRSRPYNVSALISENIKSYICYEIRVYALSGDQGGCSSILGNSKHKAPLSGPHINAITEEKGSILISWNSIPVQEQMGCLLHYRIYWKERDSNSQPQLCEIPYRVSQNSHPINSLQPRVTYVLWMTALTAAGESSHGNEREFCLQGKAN

B1: anti-IL-12Rβ2 VHH clone 3CRM95 (VHH)
VHH: QVQLQESGGGLVQAGDFLRLSCVFSGGTFGDYSMGWFRQAPGKEREFVAAIRWSGDSTQYAEAVKGRFTISRDNAKSTVYLQMSSLKPEDTAVYYCAADPSYYIGPNHTPSRYRDWGQGTQVTVSS
notes: Tested as periplasmic extract; CDR3 group 44; also called 20465
B2: anti-IL-12Rβ2 VHH clone 2CAM9 (VHH)
VHH: QVQLQESGGGLVQAGMSLRLSCAASGLTFSWYRMGWFRQAPGKEREFVAGWYGVLTQYRDSVKGRFTISRDDAKNTVYLQMNSLKPEDTAVYYCAASLGGNYRSYEYDYWGQGTQVTVSS
notes: Tested as periplasmic extract; CDR3 group 19
B3: anti-IL-12Rβ2 VHH clone 2CAM12 (VHH)
VHH: QVQLQESGGGLVQAGGSLRLSCAASGRTFSWYRMGWFRQAPGKEREFVAGWYGVLTQYRDSVKGRFTISRDDAKNTVYLQMNSLKPEDTAVYYCAASLGGNYRSYEYDYWGQGTQVTVSS
notes: as for B2
B4: anti-IL-12Rβ2 VHH clone 3CAM1 (VHH)
VHH: QVQLQESGGGLVQAGGSLRLSCAASGRTFGSHRMGWFRQAPGQEREFVAAIAWRGGTQYYTDSVKGRFTISRDNANNTVYLQMNSLKPEDAAVYYCVAGEGSSWGDITDPRRYVFWGQGTQVTVSS
notes: Tested as periplasmic extract; CDR3 group 48
B5: anti-IL-12Rβ2 VHH clone 3CAMS63 (VHH)
VHH: QVQLQESGGGLVQAGGSLRLSCAASGRTFSNYAMGWFRQAPGKEREFVAAINRSGTTLYVDSVKGRFTISRDNAKNTVALQMNSLKPEDTAVYYCVAGMPFSYSDYPRDSKYDYWGQGTQVTVSS
notes: Tested as periplasmic extract; CDR3 group 26; also called 20552
B6: anti-IL-12Rβ2 VHH clone 2CAMS29 (VHH)
VHH: QVQLQESGGGLVQAGGSLRLSCAASGLTSSTYVIGWFRQAPGKEREFVAAIMLSGGTTIYADSLKGRCTIYKDNAKNTVYLQMNSLKLEDTAVYYCASGLIYRYSDFPRSQKYNFWGQGTQVTVSS
notes: Tested as periplasmic extract; CDR3 group 54; also called 20534
B7: anti-IL-12Rβ2 VHH clone 3CAM65 (VHH)
VHH: QVQLQESGGGLVQAGGSLRLSCAPSGRTFTTYVMGWFRQAPGKEREFVAHISWSGGRTYYADSVKGRFTISRDNAKNTSYLQMNSLKPEDTAVYYCAAARSDAVRIGYAEGYEYWGQGTQVTVSS
notes: Tested as periplasmic extract; CDR3 group 49; also called 20513
B8: anti-IL-12Rβ2 VHH clone 2CAM45 (VHH)
VHH: QVQLQESGGGLVQAGGSLRLSCAASGFTFDDYAIGWFRQAPGKEREGISCISSSDYGTYYAGSVKGRFTISSDNAKNTVYLQMNSLKPEDTAVYYCAAEAISEYDCLGINYGMDYWGKGTQVTVSS
notes: Tested as periplasmic extract; CDR3 group 47; also called 20485
B9: anti-IL-12Rβ2 VHH clone 2CAM47 (VHH)
VHH: QVQLQESGGGVVQEGASLRLSCAASGRNLSTYAMGWIRQAPGKEREFVAAISWAGSTTYYADSVKGRFIISRDNAKNTLNLQMNSLKPEDTAVYYCAAPPYVTTTYYATPPSDIRDYHYWGQGTQVTVSS
notes: Tested as periplasmic extract; CDR3 group 27; also called 20487
B10: anti-IL-12Rβ2 VHH clone 3CAM11 (VHH)
VHH: QVQLQESGGGLVQAGGSLRLSCAASGRNLSTYAMGWIRQAPGKEREFVAAISWAGSTTYYADSVKGRFIISRDNAKNTLNLQMNSLKPEDTAVYYCAAPPYVTTTYYATPPSDIRDYHYWGQGTQVTVSS
notes: Tested as periplasmic extract; CDR3 group 27; also called 20508
B11: anti-IL-12Rβ2 VHH clone 2CRMS29 (VHH)
VHH: QVQLQESGGGLVQAGGPLRLSCAASGRTFSGSAMGWFRQAPGKEREFVAAITWVGGFTYYADSVKGRFTISRDNAKNTVYLQMNNLSPEDTAVYSCAAQAYHKSGYYYPPLYDYWGQGTQVTVSS
notes: Tested as periplasmic extract; CDR3 group 52; also called 20521

What was measured:
[1] = target: T1, biotinylated recombinant mouse IL-12Rβ2 …; experiment: ELISA, periplasmic extract on biotinylated mouse IL-12Rβ2; control streptavidin-coated blocked wells
[2] = target: T2, biotinylated recombinant human IL-12Rβ2 …; experiment: ELISA, periplasmic extract on biotinylated human IL-12Rβ2; control streptavidin-coated blocked wells

Binder | ELISA binding mIL-12RB2/control [1] | ELISA binding hIL-12RB2/control [2]
B1 | 6.72 ratio to control | 1.41 ratio to control
B2 | 8.27 ratio to control | 1.09 ratio to control
B3 | 3.38 ratio to control | 0.9 ratio to control
B4 | 3.3 ratio to control | 1.2 ratio to control
B5 | 9.78 ratio to control | 1.01 ratio to control
B6 | 6.24 ratio to control | 1.06 ratio to control
B7 | 5.98 ratio to control | 1.25 ratio to control
B8 | 10.4 ratio to control | 0.974 ratio to control
B9 | 4.91 ratio to control | 0.969 ratio to control
B10 | 6.6 ratio to control | 1.31 ratio to control
B11 | 5.85 ratio to control | 1.05 ratio to control
